Drawing on patent US20160194653A1, this text covers uracil-independent growth (URA3 reporter, yeast two-hybrid) on medium with ABA and Minimal conc. For ABA response for 22 substances.

This experiment has as its target GAL4 activation domain-HAB1 fusion protein (UniProt Q9CAJ0). Put plainly: cell-based or functional assay.
Sequence of UniProt Q9CAJ0 (Q9CAJ0 23-511 limits assumed): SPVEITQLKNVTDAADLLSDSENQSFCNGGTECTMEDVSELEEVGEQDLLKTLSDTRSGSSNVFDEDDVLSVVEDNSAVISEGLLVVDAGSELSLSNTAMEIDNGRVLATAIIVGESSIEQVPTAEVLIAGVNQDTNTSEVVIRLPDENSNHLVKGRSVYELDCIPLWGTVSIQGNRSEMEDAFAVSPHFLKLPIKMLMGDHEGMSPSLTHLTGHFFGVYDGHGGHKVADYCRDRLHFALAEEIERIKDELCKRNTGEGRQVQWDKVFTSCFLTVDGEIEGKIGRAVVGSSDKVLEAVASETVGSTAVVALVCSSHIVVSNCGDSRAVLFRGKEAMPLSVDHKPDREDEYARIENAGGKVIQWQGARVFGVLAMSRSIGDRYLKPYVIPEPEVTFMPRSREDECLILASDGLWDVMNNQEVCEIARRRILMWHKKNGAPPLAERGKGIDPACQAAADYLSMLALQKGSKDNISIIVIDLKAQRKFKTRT
“PYR1F61M, I110S, A160V (from UniProt P04386 1-147) (receptor)” displayed a uracil-independent growth (URA3 reporter, yeast two-hybrid) on medium with ABA of 50 nM.

Regarding “PYR1 mutant V81I (from UniProt P04386 1-147) (receptor)”, the Minimal conc. For ABA response came to 0.25 µM.

As for “PYR1 mutant E141V (from UniProt P04386 1-147) (receptor)”, the Minimal conc. For ABA response is 0.5 µM.

“PYR1 mutant E141T (from UniProt P04386 1-147) (receptor)” gave a Minimal conc. For ABA response of 0.5 µM.

“PYR1F61L, A160C (from UniProt P04386 1-147) (receptor)” yielded a uracil-independent growth (URA3 reporter, yeast two-hybrid) on medium with ABA of 50 nM.

“PYR1 mutant E141L (from UniProt P04386 1-147) (receptor)” displayed a Minimal conc. For ABA response of 0.25 µM.

Substance “PYR1 mutant E141N (from UniProt P04386 1-147) (receptor)” gave a Minimal conc. For ABA response of 0.5 µM.

For “PYR1 mutant A160I (from UniProt P04386 1-147) (receptor)”, the Minimal conc. For ABA response is 0.25 µM.

Substance “PYR1 mutant V81Y (from UniProt P04386 1-147) (receptor)” yielded a Minimal conc. For ABA response of 0.25 µM.

In turn, “PYR1 mutant E141W (from UniProt P04386 1-147) (receptor)” registered a Minimal conc. For ABA response of 0.5 µM.

“PYR1 mutant E141Y (from UniProt P04386 1-147) (receptor)” registered a Minimal conc. For ABA response of 0.25 µM.

The substance “PYR1 mutant E141M (from UniProt P04386 1-147) (receptor)” gave a Minimal conc. For ABA response of 0.25 µM.

In the case of “PYR1 mutant A160V (from UniProt P04386 1-147) (receptor)”, the Minimal conc. For ABA response was found to be 0.25 µM.

As for “PYR1F61L, V81I, I110C, A160V (from UniProt P04386 1-147) (receptor)”, the uracil-independent growth (URA3 reporter, yeast two-hybrid) on medium with ABA is 50 nM.

As for “PYR1 mutant F61L (from UniProt P04386 1-147) (receptor)”, the Minimal conc. For ABA response amounted to 0.25 µM.

Substance “PYR1F61M, A160V (from UniProt P04386 1-147) (receptor)” gave a uracil-independent growth (URA3 reporter, yeast two-hybrid) on medium with ABA of 50 nM.

The substance “PYR1 mutant E141C (from UniProt P04386 1-147) (receptor)” came in with a Minimal conc. For ABA response of 0.5 µM.

Substance “PYR1 mutant A160C (from UniProt P04386 1-147) (receptor)” came in with a Minimal conc. For ABA response of 0.25 µM.

The substance “PYR1 mutant E141I (from UniProt P04386 1-147) (receptor)” displayed a Minimal conc. For ABA response of 0.25 µM.

On to “PYR1 mutant I110S (from UniProt P04386 1-147) (receptor)”, for which the Minimal conc. For ABA response turned out to be 0.5 µM.

“PYR1 mutant I110C (from UniProt P04386 1-147) (receptor)” gave a Minimal conc. For ABA response of 0.25 µM.

The substance “PYR1 mutant F61M (from UniProt P04386 1-147) (receptor)” gave a Minimal conc. For ABA response of 0.25 µM.
